Source: the DeepSol protein solubility set

Experiment: soluble on expression in E. coli; label from the status in PepcDB or PDB records

| Sequence | soluble on expression in E. coli |
| --- | --- |
| MAHHHHHHMNEPSSGETNLQGGEDDVSAKGRSYGGAGGEKDAESNMNPSDNNTSSAVEDNHENSAQKEGADELGEDALNEMFDDFLKDIENISSNMENQQEGKKLNKGDAESEIARLLANKNSSPFEIFGIHEDVDMEKIKSKYRRLSVLIHPDKCKIEKASEAFHILNKAYEELKKDDIKEQYKSVYETAKKNIIKKLNLKKIRNELNEYLNKNEEEYEITKEVQLLINEECENLLKVQKEKMEYAQKCKLANLQYAKEKEEEKMKEELKKEEERKLWIEGREERVNNWKNYKKDNLKTEKEFHIYKNVGKKKEERTEEEKEKLKRISTTNPMEK | soluble |
| MGSDKIHHHHHHMTWTDLKSSLAAEGYVASDDLAVALQLALSLGRPLLLEGAAGVGKTEIARTLSAVRDTRLIRLQCYEGLDAAQAIYEWNYQRQLLTIRAASEAGETGKAVEDRIFSRDFLLERPLLAAITQEMAPVLLIDEIDRADEEFEAYLLEILSDFQVSIPELGTITAVTRPMVVLTSNGTRDLSDALRRRCLYTYVEYPDRTAELAILKARCPDVEARLAEQIIGFVQRLREEELEKTPGVAEMLDFAAALMGLGIADLTDNPAVLQSTLTTLLKTQSDQAQITREVAGRIAVKAA | not soluble |
| MVFGENQDLIRTHFQKEADKVRAMKTNWGLFTRTRMIAQSDYDFIVTYQQAENEAERSTVLSVFKEKAVYAFVHLMSQISKDDYVRYTLTLIDDMLREDVTRTIIFEDVAVLLKRSPFSFFMGLLHRQDQYIVHITFSILTKMAVFGNIKLSGDELDYCMGSLKEAMNRGTNNDYIVTAVRCMQTLFRFDPYRVSFVNINGYDSLTHALYSTRKCGFQIQYQIIFCMWLLTFNGHAAEVALSGNLIQTISGILGNCQKEKVIRIVVSTLRNLITSNQDVYMKKQAALQMIQNRIPTKLDHLENRKFTDVDLVEDMVYLQTELKKVVQVLTSFDEYENELRQGSLHWSPAHKCEVFWNENAHRLNDNRQELLKLLVAMLEKSNDPLVLCVAAHDIGEFVRYYPRGKLKVEQLGGKEAMMRLLTVKDPNVRYHALLAAQKLMINNWKDLGLEI | not soluble |
| MKKITLLSGILFLIGYSDAEVFESQNVRVKRNDFTNNYGYGPFGIGPTNGGFDSYGFYRDKFYNSGLPPLYSFASYRNYYHEISFHKNKYGQPAPTDFETLQQERYGPYYDGVWGYADHSKNWFGKR | not soluble |
| MSLMSKPQITIKDIARELGVSPSTVSRALKDNPDISQETRDAIHKYAREHNYKPNVLALNLRTSRSNTIGVIIPQLVHHFFSCVLSGIERTAAEAGYNILVAQSNEEYEREVKIVHSFLAARVCGVITSLAKDTSRYDHYQELLDNNIPIVFYDRICTGINTERVVVDDYAGSFAAVEYMIQTGCKRIFFYSAAPHLEISKNRRNGYMDAMKKYRIPVDQSMIKLCDSREKAIAITPALLERPDHPDGFFAINDETASGILYSCKLTGRKVPDEVSICGFTDGAIAQSTDPKLTTVEQHGEEVGKSTIRLLIDKLEGNDEGKSGNKIVRTNLVVRGTTKEGHHHHHH | soluble |
| MPAAGQAPGPECPDVLIIGGGPAGCAAAIVLAQQGWAVTLLEKEQHPRFHIGESLLPMNIPILERLGVLEQVRDIGVLKRGADFPNDAGGYNTFRFSHALDAKADYAFQVPRAQFDQVLFARAREVGVDAREQVKVESVAFDGEQPVLQARGVDGVQQFRPRYLLDASGRDTFMGNRLKLKRANAKHQSAAVFSHFRGVTRRPGEDAGNISIYRHAHGWMWLIPLPDDVMSVGAVCYPDYMKTRKGDSEGFLLRTLALNPEVAARMADAERVAPVHATGNYAYECTRMSGPRWLLLGDAYTFVDPMFSSGVFLAMHSAERGAAMVDAVLRAPHREASLQRALSRELARGLSEFKWFIYRFTSPTMRALFAQPQNVWQVEQAVVAMLAGDVFDSPKVRRRLRVFRAIYSVTALSMLPRAWHAWRHRRRQARLGFDGDTLHRDAPLEHHHHHH | not soluble |
| MMKRARIIYNPTSGRELFKKSLPEVLQKLEQAGYEASCHATTGPGDATVAARQAADRKFDVVIAAGGDGTLNEVVNGLVGHEHRPKFGIIPVGTTNDFARAIGVPRSIEEAADIICEGKTVPLDLGRANDTYFINIAGGGRITELTYEVPSKLKTVLGQLAYYLKGIEMLPSLHPTYVEIEYDGKLLQEEITMFLITNTRSVGGFEKVAPYASINDGLFDLLVLKKGSIADLIKAATQAQRGEHINNPKVLYTQANRIKVHSPDKLMINLDGEYGGDAPMEFENIYHCLELFVPEHQEDAL | not soluble |
| MERVAIFIDGSNLYKGLVQHLGSDYRLNFVEFITLLTAGRKLLRAYYYNAPLPPEDPAAKAHQSFLNYLKRVPYVTVRLGRLERRADGFVEKGVDIQIAVDMLRLAFVNAYDIAVLVSGDGDFAEVVRVVQDLGKQVENTTFHALSSHRLAQQADHFYPLDDFPWERLRAQVSPASPEEEA | soluble |
| MGSDKIHHHHHHMNVPFPKRDHGGGLDAAAAEYGGDLEAWLDLSTGINPNAYPVGQLPQDIWGRLPDEGAMARLLDAARSFWSVPDGVEVIAAAGASPLIARMPDMTAFSGAYIPVPTYNEYAAAFAARGRLNDPLNPQNPVHVYVHPNNPDGRMWPGSVIGGRPLTIIDESFCDTVPDKTHMARAAEPGVIILKSFGKFWGLAGLRLGFAIAAPETFARSSSSASLQELMGPWSVSGPALEIGARALQDHAWAEATRVRLGHDAARLDDMLLSAGAEIVGGTTLFRTYAWEQGAEVWQKRLAEHRIWSRIFPYSTNWMRLGLPATDEDWARLDAAL | not soluble |
| MSANKELQQGYSDYSAASDQAALLNRLITAMQKGELTDELLEHIPELGDAKKLNDKLKYRKSILEKSIAEQAAKNKKNGVKATSTSSPSSSTSAPAEKKAKKDGKTGGAPPKQAKKVDYVTVEDYGSSIFGRLQSLFKKAIEDAFPGLDVPLLLAETPNPQFGDYQCNSAMPIAAKLKANKINKRPGDVAKEIQAKLPTKIDFVEKIDVMPAGFINIFLNTDYLRRQISLLASEGVKLPKLTRKRVLVDFSSPNIAKEMHVGHLRSTIIGDSICRLFEAVGFDVLRVNHIGDWGTQFGMLIAHLYDRFPDFLKKLPDISDLQAFYKESKKRFDEDEQFKKRAYEYVVKLQSHDGDIVKAWNTICDVSKKYNQIVYNYLDIKIKDVGESFYQDKMIELVKWVKTNKPDMLREEDGRQIMFPTGCDIPLTVVKSDGGFTYDTSDLAALKYRMLEEKCDWNIYVVDSGQSLHLETVYAAGRDFGWYDESIQRVEHVAFGLVLGDDKKKFKTRSGETVRLLDLLSEGVKRATEKLIEKGRETAMSEEQLVAARDAVAFGCVKYADLSHTRTQDYVFSFDRMLEDRGNTAVYLLYAYTRIQSIFEKDEVKNVDLVKYIASTPTLPLDHPGEFKLAKQLLKLSDCVLLVLDSLMLHQMCDYVYQLATLFHDFYNECYVIENKEGEKPFVHMHRLALCDVTRKVMSTCFKILGLREVNKM | not soluble |
| NNESSLIEQAPIPQDGLTVAPHRAQREAVHIEKIMLKGVQRKRADKYWEYTFKVNWSDLSVTTVTKTHQELQEFLLKLPKELSSETFDKTILRALNQGSLKREERRHPDLEPILRQLFSSSSQAFLQSQKVHSFFQSISSDSLHSINNLQSSLKTSKILEHLKEDSSEASSQEEDVLQHAIIHKKHTGKSPIVNNIGTSCSPLDGLTMQYSEQNGIVDWRKQSCTTIQHPEHCVTSADQHSAEKRSLSSINKKKGKPQTEKEKIKKTDNRLNSRINGIRLSTPQHAHGGTVKDVNLDIGSGHDTCGETSSESYSSPSSPRHDGRESFESEEEKDRDTDSNSEDSGNPSTTRFTGYGSVNQTVTVKPPVQIASLGNENGNLLEDPLNSPKYQHISFMPTLHCVMHNGAQKSEVVVPAPKPADGKTIGMLVPSPVAISAIRESANSTPVGILGPTACTGESEKHLELLASPLPIPSTFLPHSSTPALHLTVQRLKLPPPQGSSESCTVNIPQQPPGSLSIASPNTAFIPIHNPGSFPGSPVATTDPITKSASQVVGLNQMVPQIEGNTGTVPQPTNVKVVLPAAGLSAAQPPASYPLPGSPLAAGVLPSQNSSVLSTAATSPQPASAGISQAQATVPPAVPTHTPGPAPSPSPALTHSTAQSDSTSYISAVGNTNANGTVVPPQQMGSGPCGSCGRRCSCGTNGNLQLNSYYYPNPMPGPMYRVPSFFTLPSICNGSYLNQAHQSNGNQLPFFLPQTPYANGLVHDPVMGSQANYGMQQMAGFGRFYPVYPAPNVVANTSGSGPKKNGNVSCYNCGVSGHYAQDCKQSSMEANQQGTYRLRYAPPLPPSNDTLDSAD | soluble |
| MAPDDTVNTLFQVYKTISFWKVLKNTLVIEFGRFFPWMGGKRKIYRVCLGMEIGEKTAIAYKVMPDLFFPEKILIGENSIIGYHTTILTHEYLLSEYRVGEVVIGRDVMVGANVTILPGTVIGDGAVIAAGAVVSVDVPAGSFAYGNPLIIKEKATLTLEHHHHHH | soluble |
| MSFVAYEELIKEGDTAILSLGHGAMVAVRVQRGAQTQTRHGVLRHSVDLIGRPFGSKVTCGRGGWVYVLHPTPELWTLNLPHRTQILYSTDIALITMMLELRPGSVVCESGTGSGSVSHAIIRTIAPTGHLHTVEFHQQRAEKAREEFQEHRVGRWVTVRTQDVCRSGFGVSHVADAVFLDIPSPWEAVGHAWDALKVEGGRFCSFSPCIEQVQRTCQALAARGFSELSTLEVLPQVYNVRTVSLPPPDLGTGTDGPAGSDTSPFRSGTPMKEAVGHTGYLTFATKTPG | soluble |
| MSQSEEQNKDIPSSSNFGNPANNGVNVPDAPARRLFDNTSDESDVSLDNDDKTGAETDGSSSSRGCLKSERSRKDHASTSSTRTVRAPQQVSWSFGAKPATPHSQPPAGLKKVPAYSATSSSSQAGPSASTSTARKSSLVGGRGSASSSGHTSPSPSESPARNAGCSSSGESNPDRSLTTPPLAPALKHSAKDGHYRGQRSMSLGGPAHEMLMSQLGGRQGNTVDCSPGEGDKVCLLVDQTRFLVSQRLLTSKPDTMLGRMFSMRASCGDLGADLVSPNERDEFEVADGMTSSCFRAILDYYQSGTMRCPSSVSVSELREACDYLLVPFNAQTVKCQNLHALLHELSNEGAREQFSQFLEEIILPQLVASTEHGERECHLVVLLDDDVVDWDDEYPPQMGEETTHVVYSTHLYKFFKYAENRDCAKQVLKERGLKKIRLGMEGYPTHKEKIKKRFNKAEVIYNYVQRPFVHCSWEKEEARSRHVDFACPIVKSKSNPSLAAAASDPLPQPAPLQQQHRVAVFGEAAPLAAHNRVDDQHFVQPLNQLMQQQAQLPQNNAMLGVNVQQQQHNHPLHSPPVNFQRNDREEE | soluble |
| MSLKRVVIIGMGFGGIRAARVLAGKGLDVVLVDRNNYHLFQPLLYQVGTAGLEQESIAYPVRAMAREWRGTRFHLAEVAGVDFPAREVVTGNGRIPYDYLIIGAGSVTNYFGLESVERHAFDLKELVDGERLRNHILTAFERAVVEPDPAKRRALMTFVIVGGGPTGVEFAGALMELVRYVLAKDYPELSVQAARVVLVEAFDRLLAAMPQELQVYTLEKLRAMGVEVLFNARVEGHHHHHH | not soluble |
| MEASDLTFTVSVDQTTKHVFDAICNVRGWWSEEIEGNTDKRNETFIYQYEDVHYAKIKVQELIPNEKVVWLVTYNYFKFTKDKSEWTGTTIRFDISAKGDKTEIRFTHYGLNPEFECYDICSNAWGQYIGQSLPDLIKSGKGNPNGKNKPTTADEERFSAKNLEHHHHHH | soluble |
| MGHHHHHHSHGTRAFGARRNTIDSTSSFSQFRNLSHRSLSIGRASGTQGSLDTGSDLGDFMDYDPNLLDDPQWPCGKHKRVLIFPSYMTTVIDYVKPSDLKKDMNETFKEKFPHIKLTLSKIRSLKREMRKLAQEDCGLEEPTVAMAFVYFEKLALKGKLNKQNRKLCAGACVLLAAKIGSDLKKHEVKHLIDKLEEKFRLNRRELIAFEFPVLVALEFALHLPEHEVMPHYRRLVQSS | soluble |
| MGSSHHHHHHSSGLVPRGSHMVESKNTELSQGTWLNKPKSVFQEAGKVTLETDEKTDFWRETFYGFTRDSGHFLGVETGSAFTAQVRVQGSYESLYDQAGIMVRIDDGHWLKAGIEISDGHAMLSSVLTNGKSDWSTAVYGGNARDFWLRVTVEKGVLRIQVSSDKKTWPLVRLAPFPTSDHYLVGPMACTPERGGLKVTFSEWSLTAPLGKALHDLS | soluble |
